Test results as given in patent US20260242478A1 (published 2026).
Where no end group is shown, it is not given here.

B1: Phage-3712 (peptide)
peptide: EVWMCRPSWMCDGF
modifications: cysteine pairing not given here; also: displayed on phage as pIII fusion
notes: not shown: pIII filament protein of the bacteriophage
B2: Phage-3713 (peptide)
peptide: LEGMCKPAWMCTGF
modifications: cysteine pairing not given here; also: displayed on phage as pIII fusion
notes: as for B1
B3: Phage-3710 (peptide)
peptide: EGRYCVPDWMCLGL
modifications: cysteine pairing not given here; also: displayed on phage as pIII fusion
notes: as for B1
B4: Phage-3711 (peptide)
peptide: IAFRCVPEWMCSAF
modifications: cysteine pairing not given here; also: displayed on phage as pIII fusion
notes: as for B1
B5: Phage-3703 (peptide)
peptide: VPRMCIPHWMCEGI
notes: as for B1
B6: Phage-3704 (peptide)
peptide: GDVRCVPSWMCEGY
notes: as for B1
B7: Phage-3701 (peptide)
peptide: EVLLCKPSWMCDGF
notes: as for B1
B8: Phage-3706 (peptide)
peptide: EIPLCRPEWMCTGL
notes: as for B1
B9: Phage-3709 (peptide)
peptide: EHIRCQPSWMCWGF
modifications: cysteine pairing not given here; also: displayed on phage as pIII fusion
notes: as for B1
B10: Phage-3702 (peptide)
peptide: PGALCVPFWMCQGF
notes: as for B1
B11: Phage-3705 (peptide)
peptide: MSMSCVPLWMCSGF
notes: as for B1
B12: Phage-3707 (peptide)
peptide: VDHMCKPMWMCNGF
notes: as for B1
B13: Phage-3714 (peptide)
peptide: GQAACVPSWMCSGF
modifications: cysteine pairing not given here; also: displayed on phage as pIII fusion
notes: as for B1
B14: Phage-3708 (peptide)
peptide: TDRVCTPAWMCQGL
notes: as for B1

Assays:
PSMA Fab (006 PSMA Fab) [1] = target: T1, PSMA Fab (006 PSMA Fab) (biotinylated (site not stated)); test: phage ELISA: clonal phage on biotinylated PSMA Fab captured on neutravidin plate, wells pre-incubated with PSMA antigen as competitor, anti-M13 HRP detection
T1 construct: Captured as biotinylated PSMA Fab on neutravidin coated plates in the phage ELISA; also called Anti-PSMA Fab; anti-PSMA Fab

PSMA Fab (006 PSMA Fab) [2] = target: T1, PSMA Fab (006 PSMA Fab); test: phage ELISA: clonal phage on biotinylated PSMA Fab captured on neutravidin plate, anti-M13 HRP detection
Procedure: (§1) Clonal phage were harvested as crude supernatants and screened via standard ELISAs. […] Prior to the addition of clonal phage. wells were incubated with blocking buffer and PSMA antigen or blocking buffer alone. Without washing or aspirating, clonal phage supernatants were then added to the wells and incubated for a short time. Wells were then washed followed by detection of bound phage using a horse radish conjugated anti-M13 antibody.

PSMA Fab (006 PSMA Fab) [3] = target: T2, PSMA Fab (006 PSMA Fab) (biotinylated (site not stated)); test: clonal phage supernatant on captured PSMA Fab pre-incubated with the competitor PSMA antigen, anti-M13-HRP detection
T2 construct: Biotinylated PSMA Fab captured on neutravidin coated plates in the phage ELISA; also called Anti-PSMA Fab; anti-PSMA Fab

PSMA Fab (006 PSMA Fab) [4] = target: T2, PSMA Fab (006 PSMA Fab); test: clonal phage supernatant on biotinylated PSMA Fab captured on neutravidin plate, anti-M13-HRP detection;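 note: before phage were added, wells received PSMA antigen in blocking buffer or blocking buffer alone, with no wash in between, followed by a short phage incubation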
Procedure: as §1

Anti-PSMA Fab [5] = target: T3, Anti-PSMA Fab; test: clonal phage ELISA; biotinylated PSMA Fab on neutravidin plate, blocking buffer alone; anti-M13 HRP detection;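 note: crude clonal phage supernatants added without washing to wells pretreated with blocking buffer with or without PSMA antigen, short incubation, then washed before detecting bound phage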
T3 construct: also called 006 PSMA Fab
Procedure: as §1

Anti-PSMA Fab [6] = target: T3, Anti-PSMA Fab; test: clonal phage ELISA; biotinylated PSMA Fab on neutravidin plate, wells pre-incubated with PSMA antigen as competitor; anti-M13 HRP detection;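 note: crude clonal phage supernatants added to antigen-treated wells without a wash, incubated briefly, then bound phage read out via horse radish–conjugated anti-M13 antibody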
Procedure: as §1

PSMA Fab [7] = target: T4, PSMA Fab; test: clonal phage ELISA; biotinylated PSMA Fab on neutravidin plate, blocking buffer alone; anti-M13 HRP detection;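 note: crude clonal phage supernatants added without washing to wells pretreated with blocking buffer with or without PSMA antigen, short incubation, then washed before detecting bound phage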
T4 construct: also called Anti-PSMA Fab; 006 PSMA Fab
Procedure: as §1

PSMA Fab [8] = target: T4, PSMA Fab; test: clonal phage ELISA; biotinylated PSMA Fab on neutravidin plate, wells pre-incubated with PSMA antigen as competitor; anti-M13 HRP detection;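 note: crude clonal phage supernatants added to antigen-treated wells without a wash, incubated briefly, then bound phage read out via horse radish–conjugated anti-M13 antibody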
Procedure: as §1

Binder	Phage binding ELISA signal, Anti-PSMA Fab in presence of PSMA (PSMA Fab (006 PSMA Fab) [1])	Phage binding ELISA signal, Anti-PSMA Fab (PSMA Fab (006 PSMA Fab) [2])	Phage binding ELISA signal, Anti-PSMA Fab in presence of PSMA antigen (PSMA Fab (006 PSMA Fab) [3])	Phage binding ELISA signal, Anti-PSMA Fab (PSMA Fab (006 PSMA Fab) [4])	other results
IERMCMPPWMCSAL [Phage-3716]	0.0662	1.42			
B1			0.0717	1.43	
DVPYCIPSWMCHGF [Phage-3698]					Phage binding ELISA signal, Anti-PSMA Fab (Anti-PSMA Fab [5]): 1.45; Phage binding ELISA signal, Anti-PSMA Fab in presence of PSMA (Anti-PSMA Fab [6]): 0.249
YGVQCVPSWMCQGF [Phage-3715]	0.0735	1.42			
YLHECRPEWMCVGF [Phage-3699]					Phage binding ELISA signal, Anti-PSMA Fab (Anti-PSMA Fab [5]): 1.45; Phage binding ELISA signal, Anti-PSMA Fab in presence of PSMA (Anti-PSMA Fab [6]): 0.153
B2			0.0862	1.42	
B3			0.0705	1.43	
MEWHCKPKWMCEGF [Phage-3717]	0.0772	1.42			
B4			0.07	1.43	
AYMKCSPAWMCEGF [Phage-3722]	0.0811	1.41			
TMQMCKPAWMCSQL [Phage-3696]					Phage binding ELISA signal, Anti-PSMA Fab (Anti-PSMA Fab [5]): 1.45; Phage binding ELISA signal, Anti-PSMA Fab in presence of PSMA (Anti-PSMA Fab [6]): 0.0765
SQHSCIPSWMCNGF [Phage-3695]					Phage binding ELISA signal, Anti-PSMA Fab (Anti-PSMA Fab [5]): 1.45; Phage binding ELISA signal, Anti-PSMA Fab in presence of PSMA (Anti-PSMA Fab [6]): 0.154
ESRLCVPTWMCTWL [Phage-3728]	0.0946	1.41			
GLPYCVPSWMCDGF [Phage-3700]					Phage binding ELISA signal, Anti-PSMA Fab (Anti-PSMA Fab [5]): 1.44; Phage binding ELISA signal, Anti-PSMA Fab in presence of PSMA (Anti-PSMA Fab [6]): 0.0858
B5			0.0731	1.43	
B6			0.0816	1.43	
QSVMCRPAWMCEGF [Phage-3748]					Phage binding ELISA signal, Anti-PSMA Fab (PSMA Fab [7]): 1.38; Phage binding ELISA signal, Anti-PSMA Fab with PSMA antigen (PSMA Fab [8]): 0.0813
B7			0.185	1.44	
DVLMCTPRWMCDGF [Phage-3725]	0.0822	1.41			
TVPRCVPAWMCNWS [Phage-3694]					Phage binding ELISA signal, Anti-PSMA Fab (Anti-PSMA Fab [5]): 1.45; Phage binding ELISA signal, Anti-PSMA Fab in presence of PSMA (Anti-PSMA Fab [6]): 0.0917

Binder	Phage binding ELISA signal, Anti-PSMA Fab in presence of PSMA (PSMA Fab (006 PSMA Fab) [1])	Phage binding ELISA signal, Anti-PSMA Fab (PSMA Fab (006 PSMA Fab) [2])	Phage binding ELISA signal, Anti-PSMA Fab in presence of PSMA antigen (PSMA Fab (006 PSMA Fab) [3])	Phage binding ELISA signal, Anti-PSMA Fab (PSMA Fab (006 PSMA Fab) [4])	other results
WIKECVPDWMCSGF [Phage-3745]					Phage binding ELISA signal, Anti-PSMA Fab (PSMA Fab [7]): 1.38; Phage binding ELISA signal, Anti-PSMA Fab with PSMA antigen (PSMA Fab [8]): 0.0803
PYAVCVPKWMCSGF [Phage-3723]	0.0805	1.41			
SEALCVPKWMCHGF [Phage-3719]	0.0994	1.42			
B8			0.126	1.43	
IDRHCVPRWMCDGL [Phage-3727]	0.0751	1.41			
MEPVCLPEWMCWGF [Phage-3747]					Phage binding ELISA signal, Anti-PSMA Fab (PSMA Fab [7]): 1.38; Phage binding ELISA signal, Anti-PSMA Fab with PSMA antigen (PSMA Fab [8]): 0.0902
B9			0.128	1.43	
TLFACVPAWMCDGF [Phage-3726]	0.0757	1.41			
VMPRCEPIWMCRGF [Phage-3746]					Phage binding ELISA signal, Anti-PSMA Fab (PSMA Fab [7]): 1.38; Phage binding ELISA signal, Anti-PSMA Fab with PSMA antigen (PSMA Fab [8]): 0.0701
B10			0.108	1.44	
B11			0.0698	1.43	
B12			0.0673	1.43	
B13			0.0867	1.42	
EEKLCKPAWMCEWF [Phage-3724]	0.096	1.41			
PGKVCEPIWMCLGF (cysteine pairing not given here; also: displayed on phage as pIII fusion) [Phage-3744]					Phage binding ELISA signal, Anti-PSMA Fab (PSMA Fab [7]): 1.38; Phage binding ELISA signal, Anti-PSMA Fab with PSMA antigen (PSMA Fab [8]): 0.124
GENWCVPQWMCDGF [Phage-3721]	0.139	1.41			
ESPICKPSWMCSGL [Phage-3718]	0.0616	1.42			
NEKLCVPTWMCDGL [Phage-3697]					Phage binding ELISA signal, Anti-PSMA Fab (Anti-PSMA Fab [5]): 1.45; Phage binding ELISA signal, Anti-PSMA Fab in presence of PSMA (Anti-PSMA Fab [6]): 0.0612
B14			0.0772	1.43	
EPRACVPFWMCLGF [Phage-3720]	0.0796	1.42			
